For orientation: Kd means the free concentration of one partner at which half of the binding sites on the other are occupied at equilibrium, for simple one-to-one binding.

Assay [1] has as its target T1, AVI-tagged DOK3(1–330 aa) (UniProt Q7L591 1-330).
T1 sequence (looked up): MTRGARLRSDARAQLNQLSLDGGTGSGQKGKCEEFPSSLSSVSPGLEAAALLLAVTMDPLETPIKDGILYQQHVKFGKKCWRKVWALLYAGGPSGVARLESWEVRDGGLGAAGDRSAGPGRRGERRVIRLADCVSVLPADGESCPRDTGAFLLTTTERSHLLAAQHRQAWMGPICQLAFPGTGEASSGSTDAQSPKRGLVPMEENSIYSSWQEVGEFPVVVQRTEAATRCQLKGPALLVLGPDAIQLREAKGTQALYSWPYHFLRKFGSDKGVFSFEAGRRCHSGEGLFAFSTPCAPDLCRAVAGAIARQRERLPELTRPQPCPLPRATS
The assay can be described thus: BLI. (In general: In BLI a coated tip is dipped into the sample, and binding shifts an interference pattern.)

Assay [2] addresses T1, AVI-tagged DOK3(1–330 aa). The assay can be described thus: BLI. This is another data set of the same source.

B1: His-PRDX1 recombinant protein (WT, 1-199 aa) (natural protein, UniProt Q06830 1-199, looked up)
chain: MSSGNAKIGHPAPNFKATAVMPDGQFKDISLSDYKGKYVVFFFYPLDFTFVCPTEIIAFSDRAEEFKKLNCQVIGASVDSHFCHLAWVNTPKKQGGLGPMNIPLVSDPKRTIAQDYGVLKADEGISFRGLFIIDDKGILRQITVNDLPVGRSVDETLRLVQAFQFTDKHGEVCPAGWKPGSDTIKPDVQKSKEYFSKQK
Consider B1, for which the “KD with SAB” value in assay [1] worked out at 1.77 µmol/L. Besides, in assay [2], binding was put at a Kd of 15.5 µM.

These data come from article PMC12399193 (Acta Pharmaceutica Sinica. B, 2025).
